Tests used:
CAR D1 (human) = CAR D1 (human) (UniProt P78310)
[1] = target: wild type CAV-2 fiber head (canine adenovirus serotype 2 (CAV-2)) (UniProt Q65914); assay: crystal structure; crystals of the CAV-2 fiber head - CAR D1 complex (space group I422) soaked with 10 to 50 mM sialyl-D-lactose; 2.9 Å
[2] = target: wild type CAV-2 fiber head (canine adenovirus serotype 2 (CAV-2)) (UniProt Q65914); assay: crystal structure; untagged CAV-2 fiber head crystallised with sialyl-D-lactose; 1.9 Å
[3] = target: T1, HAd37 fiber head in complex with CAR D1 (Human adenovirus D37, UniProt Q64823); assay: X-ray crystal structure ([…] Å); type: binding; details: ligand soaked at 10 to 50 mM; ternary complex with CAR D1; Neu5Ac site of fiber head, not overlapping CAR site; HAd37 Neu5Ac site near the three-fold axis
T1 construct: gene L5; fiber head residues 177-365 with CAR domain D1; one monomer of each in asymmetric unit (space group I23, trimer by symmetry); with Coxsackievirus and adenovirus receptor (human), Ig-like domain D1

[4] = target: T2, CAV-2 fiber head (CAV-2H^wt) (Canine adenovirus 2 strain Toronto A 26-61, UniProt Q65914); assay: X-ray crystal structure ([…] Å); type: binding; details: crystals grown with 8 mM and soaked in about 80 mM ligand, pH 7.4; Neu5Ac moiety bound at trimer periphery (Asn435, Ser419, Ser416, Gln417, Arg515)
T2 construct: gene L5; fiber head domain residues 358-542, N-terminal His-tag cleaved with TEV, pPROEX HTb; homotrimer

Sequence of CAR D1 (human) (P78310 20-140): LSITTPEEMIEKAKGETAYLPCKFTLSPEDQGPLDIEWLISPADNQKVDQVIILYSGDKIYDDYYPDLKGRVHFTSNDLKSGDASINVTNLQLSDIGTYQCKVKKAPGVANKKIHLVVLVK

Compound | fold reduction of CAV-2 hemagglutination of human erythrocytes (CAR on the erythrocytes) after pre-incubating the erythrocytes with the fiber head (CAR D1 (human)) | stoichiometry N [1] | stoichiometry N [2] | X-ray crystal structure (1.55 Å) [3] | X-ray crystal structure (1.9 Å) [4]
CAV-2H^SA−1: CAV-2 fiber head mutant R515A (from UniProt Q65914 358-542) (domain or fragment) | 16 fold |  |  |  | 
wild type CAV-2 fiber head (from UniProt Q65914 358-542) (domain or fragment) | > 256 fold | 3 | 3 |  | 
CAV-2H^CAR−: CAV-2 fiber head with E384A mutation (CAR binding site) (from UniProt Q65914 358-542) (domain or fragment) | 2 fold |  |  |  | 
CC(=O)N[C@H]1[C@H]([C@H](O)[C@H](O)CO)O[C@@](O[C@H]2[C@@H](O)[C@@H](CO)O[C@@H](O[C@H]3[C@H](O)[C@@H](O)C(O)O[C@@H]3CO)[C@@H]2O)(C(=O)O)C[C@@H]1O (stereo partly drawn) [sialyl-D-lactose, α2-3 N-acetylneuraminosyl-D-lactose] |  |  |  | one CAR D1 molecule and one sialyl-D-lactose molecule in the asymmetric unit | clear density for six N-acetyl neuraminic acid (Neu5AC) moieties in the asymmetric unit

Source: article PMC2607015, “The Cell Adhesion Molecule “CAR” and Sialic Acid on Human Erythrocytes Influence Adenovirus In Vivo Biodistribution” (PLoS Pathogens, 2009)
